Each block holds one molecule with its values, some of them ahead of it.
Legend:
[1] = target: CALR del52 (human calreticulin mutant L367fs*46), full length, no tag stated (human); experiment: flow cytometry on living Ba/F3 cells with human TPOR and CALR mutant after adding the Fc fusion to the medium; concentration not given
[2] = target: the molecule itself; experiment: native gel with or without DTT (self-association)
[3] = target: T1, recombinant complete extracellular domain of TpoR with mature glycans (human, UniProt P40238 26-490, mature glycans); experiment: HDx-MS of mature TpoR ECD alone or with CALR del52
T1 construct: Purified recombinant protein used in HDx-MS; also called TpoR ECD; D1D2D3D4
T1 sequence: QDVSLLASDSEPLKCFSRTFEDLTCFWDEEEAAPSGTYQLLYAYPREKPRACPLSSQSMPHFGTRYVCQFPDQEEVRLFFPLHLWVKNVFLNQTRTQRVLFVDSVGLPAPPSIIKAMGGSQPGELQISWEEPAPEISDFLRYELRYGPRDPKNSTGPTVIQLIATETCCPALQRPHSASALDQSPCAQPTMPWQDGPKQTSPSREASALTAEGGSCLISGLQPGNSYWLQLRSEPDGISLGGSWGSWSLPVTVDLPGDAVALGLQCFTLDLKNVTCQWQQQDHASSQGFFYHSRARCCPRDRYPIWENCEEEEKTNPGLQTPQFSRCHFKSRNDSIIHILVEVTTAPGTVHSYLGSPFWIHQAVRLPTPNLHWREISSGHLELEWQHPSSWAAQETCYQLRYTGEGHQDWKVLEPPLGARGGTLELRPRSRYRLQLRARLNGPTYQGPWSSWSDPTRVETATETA
Experimental: Hydrogen-Deuterium Exchange Mass Spectrometry (HDx-MS): Hydrogen-Deuterium Exchange Mass Spectrometry was performed with a Waters nanoAcquity UPLC with HDx technology coupled with Synapt G2-Si. All purified recombinant proteins were used at 20 μM concentration in equilibration buffer (5 mM K2HPO4, 5 mM KH2PO4 dissolved in H2O, pH 7). For interaction analysis between recombinant mature D1D2D3D4 and CALR del52, proteins were first mixed together at a 1:1 molarity for 30 minutes at room temperature followed by 3 hours at 4° C. Proteins were then kept at 0° C. Labelling was performed with a 20-fold dilution of samples in labelling buffer (5 mM K2HPO4, 5 mM KH2PO4 dissolved in D20, pD 7) for 6 different incubation times (0, 0.25, 1, 5, 20 and 60 minutes) at 20° C. After incubation, the reaction was quenched using a 1:1 dilution in the quench buffer (0.05 M K2HPO4, 0.05 M KH2PO4 with 30 mM TCEP, pH 2.3) prior to injection into a pepsin column (Enzymate BEH Pepsin 2.1×30 Column, Waters CAT. 186007233) with dynamic flowrate of 150-75 μL/min. […] The peptides identified were further analyzed with DynamX 3.0 (Waters) using a tolerance of 10 ppm, a maximum length of 35 a.a., a minimum products per amino acid of 0.2 and requiring that each peptide was identified in 3 out of 3 replicates. […] Data was statistically analyzed using Deuteros 2.0 with peptide-level significance testing (Lau et al., 2021). […]

[4] = target: T2, TpoR D1D2 (sD1D2) with immature glycans, produced with CALR del52 in Drosophila S2 (Schneider) cells (human, UniProt P40238 26-283, limits assumed, immature glycans (Asn117)); experiment: complex co-produced in S2 cells, size-exclusion chromatography, HDx-MS
T2 construct: Purified as a complex with CALR del52 for HDx-MS; also called immature TpoR
T2 sequence: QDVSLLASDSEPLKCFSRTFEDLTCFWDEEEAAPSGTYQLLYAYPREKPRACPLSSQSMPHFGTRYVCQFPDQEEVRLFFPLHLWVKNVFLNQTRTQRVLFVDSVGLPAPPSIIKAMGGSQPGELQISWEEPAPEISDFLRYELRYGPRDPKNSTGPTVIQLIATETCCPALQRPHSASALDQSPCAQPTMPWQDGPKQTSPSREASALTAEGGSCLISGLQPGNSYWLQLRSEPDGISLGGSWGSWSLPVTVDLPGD
Description: All peptides were visually validated based on retention time, drift time and isotopic m/z. Data was statistically analyzed using Deuteros 2.0 with peptide-level significance testing (Lau et al., 2021).
Subsequently, CALR del52-D1D2 produced as a complex in Schneider cells was purified. Briefly, the extracellular domain of the human TpoR and human CALR mutant del52 produced in Drosophila S2 cells (Thermo Fisher Scientific) were fractionated by using size-exclusion chromatography by loading on a Superdex 200 Increase 10/300 column (GE Healthcare). Elution was performed at 0.5 mL/min with buffer TNG (Tris-NaCl-glycerol) pH 7.5, and 0.5 mL fractions were collected and analyzed by sodium dodecyl sulfate-polyacrylamide gel electrophoresis and western blot. Fraction proteins were immunoprecipitated with anti-His5 antibody (Qiagen) and treated with Endoglycosidase-H (NEB) or N-glycosidase F (NEB). HDx-MS was used to detect all interaction sites between CALR del52 and TpoR D1D2 (sD1D2) produced in the same cells. […] Importantly, this region was not involved in binding of mature TpoR as shown above, confirming that it is specifically involved in interaction with immature glycans. […]

[5] = target: the molecule itself; experiment: native gel of CALR species with or without DTT (self-association)

reduction of the level of CALR mutant at the cell surface [1]: > 50%
Molecule: D1-Fc (TPOR D1 domain fused through its C-terminus to an Fc fragment) (from UniProt P40238 26-121) (Fc fusion)

binding result [3]: binds
binding result [4]: binds
B1: CALR del52 (human calreticulin mutant L367fs*46), full length, no tag stated (other)
chain: EPAVYFKEQFLDGDGWTSRWIESKHKSDFGKFVLSSGKFYGDEEKDKGLQTSQDARFYALSASFEPFSNKGQTLVVQFTVKHEQNIDCGGGYVKLFPNSLDQTDMHGDSEYNIMFGPDICGPGTKKVHVIFNYKGKNVLINKDIRCKDDEFTHLYTLIVRPDNTYEVKIDNSQVESGSLEDDWDFLPPKKIKDPDASKPEDWDERAKIDDPTDSKPEDWDKPEHIPDPDAKKPEDWDEEMDGEWEPPVIQNPEYKGEWKPRQIDNPDYKGTWIHPEIDNPEYSPDPSIYAYDNFGVLGLDLWQVKSGTIFDNFLITNDEAYAEEFGNETWGVTKAAEKQMKDKQDEEQRTRRMMRTKMRMRRMRRTRRKMRRKMSPARPRTSCREACLQGWTEA
notes: also called CALR mutant; mutant CALR
binding result [2]: binds

B2: CALR Δc-tail (other)
chain: EPAVYFKEQFLDGDGWTSRWIESKHKSDFGKFVLSSGKFYGDEEKDKGLQTSQDARFYALSASFEPFSNKGQTLVVQFTVKHEQNIDCGGGYVKLFPNSLDQTDMHGDSEYNIMFGPDICGPGTKKVHVIFNYKGKNVLINKDIRCKDDEFTHLYTLIVRPDNTYEVKIDNSQVESGSLEDDWDFLPPKKIKDPDASKPEDWDERAKIDDPTDSKPEDWDKPEHIPDPDAKKPEDWDEEMDGEWEPPVIQNPEYKGEWKPRQIDNPDYKGTWIHPEIDNPEYSPDPSIYAYDNFGVLGLDLWQVKSGTIFDNFLITNDEAYAEEFGNETWGVTKAAEKQMKDKQDEEQR
notes: the C-tail is absent
binding result [5]: no binding

Reference: US20250250320A1 (UNIVERSITE CATHOLIQUE DE LOUVAIN, published 2025)
